Experimental data reported in patent publication US8252554B2, “Halohydrin dehalogenases and related polynucleotides” (Codexis, Inc., priority 2003, dated 2012).

Assay: Example 7 manufacture of ethyl (R)-4-cyano-3-hydroxybutyrate with HHDH cell lysate
Type: biochemical
Details: 40° C., pH 7, 17 hours
Experimental: To a 3-necked jacketed 3 L flask equipped with a mechanical stirrer and connected to an automatic titrater by a pH electrode and a feeding tube for addition of base, was charged H2O (1200 mL), NaCN (37.25 g) and NaH2PO4 (125 g) to bring the solution to pH 7. The water circulator was set to 40° C. After 10 minutes, halohydrin dehalogenase of SEQ ID NO: 32 as cell lysate (250 mL) was added. The reaction mixture was allowed to stir for 5 minutes. Using an addition funnel, ethyl (S)-4-chloro-3-hydroxybutyrate (45 g) was slowly added over 1 hour. The pH was maintained at 7 by the automatic titrater by the addition of 10 M NaOH (27 mL) over 17 hours. […] Celite™ (16 g) was added to the flask, which was then connected to a diaphragm pump, whose exhaust is bubbled into 5M NaOH (200 mL), to remove HCN. The mixture was heated to 60° C. under 100 mm Hg pressure. After 1 hour, a submerged air bubbler was added to the solution to aid the removal of the HCN. After 3 hours, an HCN detector indicated less than 5 ppm HCN in the off-gas. The mixture was allowed to cool to room temperature, then filtered through a Celite™ pad. […] Enantiomeric composition can be readily characterized by using the gas chromatography method described in Example 6, above, and using methods that are known in the art.

B1: SEQ ID NO: 32: native halohydrin dehalogenase from Agrobacterium radiobacter AD1 (hheC), expressed from SEQ ID NO. 31 (protein)
chain: MSTAIVTNVKHFGGMGSALRLSEAGHTVACHDESFKQKDELEAFAETYPQLKPMSEQEPAELIEAVTSAYGQVDVLVSNDIFAPEFQPIDKYAVEDYRGAVEALQIRPFALVNAVASQMKKRKSGHIIFITSATPFGPWKELSTYTSARAGACTLANALSKELGEYNIPVFAIGPNYLHSEDSPYFYPTEPWKTNPEHVAHVKKVTALQRLGTQKELGELVAFLASGSCDYLTGQVFWLAGGFPMIERWPGMPE
For B1, the “conversion to product by gas chromatography” value was “complete conversion to product”.
